Values quoted from earlier work as cited in publication PMC3831880.

Molecular target: HPr (Escherichia coli) (UniProt P0AA04)
Experiment: PRE titration

Enzyme I N-terminal domain (EIN) N-terminal domain (from UniProt P08839)
Kd: 7 µM
